In patent US20110123546A1 (published 2011):

Molecular target: rhesus rotavirus strain RRV
Experiment: cell-based or functional assay

Binder	% infection of MA104 cells relative to irrelevant VHH (NSP4 Western blot densitometry) [%]
VHH15 (VHH) VHH: QVQGAGLWGGLVQLGGSLRLSCAASGFTFGYYAMSWVRQAPGKGLEWVSYINDNGGYTAYTDPVKGRFTISRDNAKNILYLHMNNLKPEDTAVYFCAKWGTDAVSSSRYKSHDYDSRGPGTQVTVSS	40
VHH1 (VHH) VHH: QVQLQDSGGGLVQAGDRLSLSCAASGRTFSSYDMAWFRQAPGKEREFVAAITTSEGTWYGDAGKGRFTIARVNAKNTVYLHMNRLKPEDTAVYYCAASNQGGSLQISTNYNYWGQGTQVTVSS	40
VHH2 (VHH) VHH: QVQLQESGGGLVQAGDSLRLSCAASGRTFSSYAMGWFRQAPGKEREFVAAVSSSNSPWYGDSIKGRSTIHRDNAKNTVYLYMNNLKPEDTAVYYCAADLEGERLGESSEYDYWGQGTQVTVSS	40
VHH3 (VHH) VHH: QVQLQESGGGLVQPGGSLRLSCAASGFTFKYYAMSWVRQAPGKGLEWVSYINDNGGYTDYSDSVKGRFTISRDNAKNTLYLHMNRLKPEDTAVYFCAKWDTDAVSSSRYKTHNGDIRGPGTQVTVSS	40
